In publication PMC8639217, “Structure of New Binary and Ternary DNA Polymerase Complexes From Bacteriophage RB69”:

Target: T1, RB69 DNA polymerase exo- (RB69pol) (Enterobacteria phage RB69, UniProt Q38087 1-903, D222A;D327A)
T1 sequence: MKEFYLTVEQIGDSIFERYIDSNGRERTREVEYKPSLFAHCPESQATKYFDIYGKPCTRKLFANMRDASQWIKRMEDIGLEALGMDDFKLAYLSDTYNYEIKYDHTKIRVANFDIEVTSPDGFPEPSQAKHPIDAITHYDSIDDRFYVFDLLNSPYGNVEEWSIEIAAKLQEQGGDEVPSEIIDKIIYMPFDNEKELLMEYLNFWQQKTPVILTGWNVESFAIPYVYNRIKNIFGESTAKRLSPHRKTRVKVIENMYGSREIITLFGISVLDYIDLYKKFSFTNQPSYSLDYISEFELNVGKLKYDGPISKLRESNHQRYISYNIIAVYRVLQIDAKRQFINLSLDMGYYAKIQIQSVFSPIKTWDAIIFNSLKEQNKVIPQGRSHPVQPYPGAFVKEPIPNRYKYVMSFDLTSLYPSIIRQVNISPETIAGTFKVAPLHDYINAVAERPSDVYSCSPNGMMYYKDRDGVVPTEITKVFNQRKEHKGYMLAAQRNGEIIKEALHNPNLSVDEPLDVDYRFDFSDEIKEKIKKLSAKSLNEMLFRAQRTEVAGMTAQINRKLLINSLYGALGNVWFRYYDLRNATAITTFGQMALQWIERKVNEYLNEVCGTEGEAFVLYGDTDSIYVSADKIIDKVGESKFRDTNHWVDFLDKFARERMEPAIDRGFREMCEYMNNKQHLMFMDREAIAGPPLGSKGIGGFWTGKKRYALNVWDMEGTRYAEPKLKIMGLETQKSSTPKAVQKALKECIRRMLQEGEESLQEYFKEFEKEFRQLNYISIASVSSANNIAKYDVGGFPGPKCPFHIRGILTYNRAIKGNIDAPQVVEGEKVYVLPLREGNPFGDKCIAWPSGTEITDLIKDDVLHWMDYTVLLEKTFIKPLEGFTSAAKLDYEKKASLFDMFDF
Assay: X-ray crystallography (2.2 A); MolA: closed ternary complex with dUpNpp, single Ca2+ at B site; rGMP in NTD; Complex (1:1.2 protein:DNA) in 10 mM Tris-HCl pH 8.0, 50 mM NaCl, 10 mM CaCl2, 5 mM DTT, 5% glycerol, 1 mM dUpNpp, 12 h 4 C; crystals at 21 C in 50 mM Na cacodylate pH 5.0, 2-7% isopropanol, 5 mM MgCl2, 2 mM NaCl, 12 mM spermine
Conditions: protein: recombinant; tags: N-terminal His6 removed with TEV protease; 15 bp; 5' overhang 1 nt on primer, 5' overhang 4 nt on template; 1:1

B1: primer/template (P/T) duplex (dsDNA)
DNA 1: GGAGCGGACTGCTTAC
DNA 2: TCAAGTAAGCAGTCCGCTC
Question: Does B1 bind?
Answer: binds
